In data set [1] the target is T1, PFK-A1 (Sll1196) (Synechocystis sp. PCC 6803, UniProt P72830).
T1 construct: gene pfkA1
The data set is described as follows: coupled NADH assay, effector test. In kind it is biochemical. To be noted: read-out: % residual activity at 1 mM.

In data set [2] the target is T2, PFK-A2 (Sll0745) (Synechocystis sp. PCC 6803, UniProt Q55988).
T2 construct: gene pfkA2
The data set can be described thus: coupled NADH assay (aldolase/TPI/GPDH), […] nm; global MWC fit. Type of data set: biochemical.

For data set [3], the target named is T3, PFK-A2 from M. aeruginosa PCC 9808 (Microcystis aeruginosa, UniProt I4HJC6).
T3 construct: gene pfkA; codon-optimized gene in pET15b, His tag, E. coli Rosetta (DE3), IMAC
T3 sequence (I4HJC6 1-402): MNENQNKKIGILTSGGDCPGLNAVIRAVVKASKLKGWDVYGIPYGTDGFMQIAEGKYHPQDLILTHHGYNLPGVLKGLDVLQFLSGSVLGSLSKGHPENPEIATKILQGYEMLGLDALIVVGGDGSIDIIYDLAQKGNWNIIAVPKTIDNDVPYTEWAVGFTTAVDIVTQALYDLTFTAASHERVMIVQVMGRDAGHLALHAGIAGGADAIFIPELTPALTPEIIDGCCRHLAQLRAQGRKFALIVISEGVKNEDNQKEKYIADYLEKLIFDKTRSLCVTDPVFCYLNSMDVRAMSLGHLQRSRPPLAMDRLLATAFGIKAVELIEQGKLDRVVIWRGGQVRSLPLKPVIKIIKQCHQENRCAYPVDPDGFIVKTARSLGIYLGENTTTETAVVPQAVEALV
The data set can be described thus: coupled NADH assay, phosphate donor specificity. Type of data set: biochemical. The following applies: 1 mM F6P, 2 mM ADP, 10 mM MgCl2, pH 7.7, 30 °C.

Data set [4] deals with T4, PFK-A1 from A. brasilense (Azospirillum brasilense, UniProt A0A560AK87).
T4 construct: gene pfkA; codon-optimized gene in pET15b, His tag, E. coli Rosetta (DE3), IMAC
T4 sequence (A0A560AK87 1-361): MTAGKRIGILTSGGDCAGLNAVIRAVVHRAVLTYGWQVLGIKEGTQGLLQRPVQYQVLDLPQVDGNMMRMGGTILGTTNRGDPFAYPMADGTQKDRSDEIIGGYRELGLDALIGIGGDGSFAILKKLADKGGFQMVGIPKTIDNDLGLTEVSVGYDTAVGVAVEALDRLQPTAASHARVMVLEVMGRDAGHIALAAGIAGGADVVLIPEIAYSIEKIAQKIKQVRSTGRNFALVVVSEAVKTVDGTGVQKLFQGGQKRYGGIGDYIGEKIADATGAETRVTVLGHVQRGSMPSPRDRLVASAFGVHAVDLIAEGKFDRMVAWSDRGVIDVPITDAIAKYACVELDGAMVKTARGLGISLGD
The data set can be described thus: coupled NADH assay, phosphate donor specificity. In kind it is biochemical. The following applies: 1 mM F6P, 2 mM ADP, 10 mM MgCl2, pH 7.7, 30 °C.

The target in data set [5] is T5, PFK-A1 from Crocosphaera subtropica (Crocosphaera subtropica, UniProt B1WQ98).
T5 construct: gene pfkA1; codon-optimized gene in pET15b, His tag, E. coli Rosetta (DE3), IMAC
T5 sequence (B1WQ98 1-360): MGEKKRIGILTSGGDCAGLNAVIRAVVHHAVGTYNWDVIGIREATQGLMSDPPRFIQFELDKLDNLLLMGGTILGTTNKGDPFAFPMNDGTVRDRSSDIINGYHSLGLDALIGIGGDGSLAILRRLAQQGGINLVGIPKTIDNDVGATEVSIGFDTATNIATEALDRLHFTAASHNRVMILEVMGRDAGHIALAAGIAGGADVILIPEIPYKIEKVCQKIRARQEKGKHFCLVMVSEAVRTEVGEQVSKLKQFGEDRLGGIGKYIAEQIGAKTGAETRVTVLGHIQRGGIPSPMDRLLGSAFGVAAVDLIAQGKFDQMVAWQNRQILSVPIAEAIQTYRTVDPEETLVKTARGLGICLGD
The data set can be described thus: coupled NADH assay, phosphate donor specificity. In kind it is biochemical. To be noted: 1 mM F6P, 2 mM ADP, 10 mM MgCl2, pH 7.7, 30 °C.

For data set [6], the target named is T1, PFK-A1 (Sll1196). The data set can be described thus: coupled NADH assay (aldolase/TPI/GPDH), […] nm; global MWC fit. In kind it is biochemical. The following applies: read-out: PFK-A11.
Substrate in data set [7]: Nc1ncnc2c1ncn2[C@@H]1O[C@H](COP(=O)(O)OP(=O)(O)O)[C@@H](O)[C@H]1O
The data set can be described thus: purified protein. Type of data set: biochemical, Synechocystis sp. PCC 6803. The following applies: MWC R-state constant, co-substrate F6P.

Data set [8] concerns the molecule itself. The data set is described as follows: native MS; nanoESI, Exactive Plus EMR Orbitrap, positive EMR mode; protein rebuffered to 200 mM or 1 M ammonium acetate pH 6.8, 5 uM stock; PFK-A1 also with F6P; self-association.
Data set [9] concerns the molecule itself. The data set is described as follows: SEC; HiLoad 16/600 Superdex 200 prep grade, 50 mM HEPES/NaOH pH 7.5 (RT), 300 mM NaCl, 3 mM dithiothreitol, 1 ml/min; calibrated with five standard proteins; PFK-A1 applied at 5 mg/ml (62.5 uM), PFK-A2 at 7 mg/ml (87.5 uM); self-association.

What is called kcat is the maximal rate divided by the concentration of active sites. A word on the stoichiometry N: it is a count of units in the complex or per binding partner.

For `Nc1ncnc2c1ncn2[C@@H]1O[C@H](COP(=O)(O)OP(=O)(O)OP(=O)(O)O)[C@@H](O)[C@H]1O` [ATP], in data set [1], the remaining activity at 1000 µM came out at 96%. In addition, the Ki in data set [2] is 200 µM.
Turning to `Nc1ncnc2c1ncn2[C@@H]1O[C@H](COP(=O)(O)OP(=O)(O)O)[C@@H](O)[C@H]1O` [ADP], the “coupled NADH assay, phosphate donor specificity” value in [3] is “all three tested enzymes were specific for ADP and showed no activity with ATP”; in data set [4], “all three tested enzymes were specific for ADP and showed no activity with ATP”; in data set [5], “all three tested enzymes were specific for ADP and showed no activity with ATP”.
As to `C=C(OP(=O)(O)O)C(=O)O` [PEP], in data set [1], the remaining activity at 1000 µM is 86%.
`O=C(O)[C@H](O)COP(=O)(O)O` [3PG]: the Ki in data set [6] is 110 µM.

B1: Synechocystis sp. PCC 6803 ADP-dependent phosphofructokinase PFK-A1 (Sll1196) (enzyme, UniProt P72830 1-361, looked up)
chain: MGEIKRIGILTSGGDCAGLNAVIRSVVHHAIGTYGWEVIGIQEATQGLMENPSKAIALHRDNIDHLLMMGGTFLGTTNKGNPFAFPMADGTVRDRTEDIIAGYRQLGLDALIGIGGDGSLAILRRIAQQGGINLVGIPKTIDNDVGATEISIGFDTATNIATEALDRLHFTAASHNRVMVLEVMGRDAGHIALAAGIGGGADIILIPEIPYRIQSVCNKIRQRQAEGKNFCLVMVSEAVRTELGDQVKQIQQFGEDRYGGIGKYIAEQIAQRTGAETRVTVLGHIQRGGIPSPFDRLLGSVFGVAAVDLIAEGKFDHMVAWRNRQTISVPIEEAIQTYQTVQLDGTLVKTARGLGICLGND
notes: Phosphofructokinase isoenzyme PFK-A1 (sll1196) of Synechocystis sp; PCC 6803, amplified from genomic DNA with primers from the start codon (NdeI) to the stop codon (BamHI); calculated mass 40.47 kDa; Oligomeric state differs by method (dimer by SEC, mainly tetramer by native MS), so copies is left empty; No tag cleavage is described; also called ADP-PFK-A1; source: E. coli Rosetta (DE3), pET15b, …
B1: the Km in data set [7] (10 mM MgCl2, pH 7.7, 30 °C) is on record as 0.14 (±0.01) mM. For the same molecule, the kcat in [7] (10 mM MgCl2, pH 7.7, 30 °C) is 5.9 s⁻¹. Also, the “stoichiometry N” value in data set [8] was found to be 4; in data set [9] it was 2.

B2: Synechocystis sp. PCC 6803 ADP-dependent phosphofructokinase PFK-A2 (Sll0745) (enzyme, UniProt Q55988 1-384, looked up)
chain: MGTKRIGILTSGGDCPGLNAVIRAVVKASALKGWEVYGIPYGTDGFVEVAHGKYQAEDLLLTKHGYALPGMLKGLDVLQFLSGSVLGSLSKGHPEQPAIAEAILKGYAILDLEALIVIGGDGSLDIIYDLAQKGNWHIIAIPKTIDNDVPFTDLAVGFSTAVDIVTQALYDLTFTAASHERIIIVQVMGRDAGHLTLHAGIAGGADIILIPEITPCLTSEIIRNCCYQLMNLRKSGRHFALIVISEGVHDQNNKKNKHIADYLAEEISETSQHLCDIKDPAFCDLISLDIRATTLGHLQRSGTPLSFDRLLATVFGIRAVELIEQEIYDQVVIWRSGKVEHADLKPIISIIKECHQENRCPFPVDRDGFMVKTAKSLGIYLGED
notes: Phosphofructokinase isoenzyme PFK-A2 (sll0745) of Synechocystis sp; PCC 6803, amplified from genomic DNA with primers from the start codon (NdeI) to the stop codon (BamHI); calculated mass 43.64 kDa; Mainly dimer by SEC and native MS, with a lesser tetramer by native MS, so copies is left empty; No tag cleavage is described; also called ADP-PFK-A2; source: E. coli Rosetta (DE3), pET15b, purified …
Take B2: in data set [7] (5 mM MgCl2, pH 7.7, 30 °C), the Km is 0.17 (±0.03) mM. Further, the kcat in [7] (5 mM MgCl2, pH 7.7, 30 °C) was 12.3 s⁻¹. The “stoichiometry N” value in data set [8] came to 4; in data set [9], 2.

For the origin of these results see article PMC11609450, “Structure function analysis of ADP-dependent cyanobacterial phosphofructokinase reveals new phylogenetic grouping in the PFK-A family” (The Journal of Biological Chemistry, 2024).
